Patent publication US10689628B2, “Method of making variant LovD polypeptides” (THE REGENTS OF THE UNIVERSITY OF CALIFORNIA, priority 2009, dated 2020)
Where “and” joins values, the source holds several entries; their conditions need not be identical. Identical values can stand only once. Entries after “also recorded” stand apart in the source; their conditions may differ.

Experiments:
[1] = target: T1, LovD (Aspergillus terreus, UniProt Q9Y7D1); test: LovD transacylation of monacolin J with acyl-thioesters / acyl-CoAs (conversion by HPLC); format: biochemical; settings: 10 μM LovD, 1 mM monacolin J, 4 mM acyl-thioester, 50 mM HEPES, pH 7.9, 25° C., 10 hours; HPLC 238 nm
T1 construct: made in house; host or cells: E. coli BL21(DE3)/pAW31
T1 sequence (Q9Y7D1 whole entry): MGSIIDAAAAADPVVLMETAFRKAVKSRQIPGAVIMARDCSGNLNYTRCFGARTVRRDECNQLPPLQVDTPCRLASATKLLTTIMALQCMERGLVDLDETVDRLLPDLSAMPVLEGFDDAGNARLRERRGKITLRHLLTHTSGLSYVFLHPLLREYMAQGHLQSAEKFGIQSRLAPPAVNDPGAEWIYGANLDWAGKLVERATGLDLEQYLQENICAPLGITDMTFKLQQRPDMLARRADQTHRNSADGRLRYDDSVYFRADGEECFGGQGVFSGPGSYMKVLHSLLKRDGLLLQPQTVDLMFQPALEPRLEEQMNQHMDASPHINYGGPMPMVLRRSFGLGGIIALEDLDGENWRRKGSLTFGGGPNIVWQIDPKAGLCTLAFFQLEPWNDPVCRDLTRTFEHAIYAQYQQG
Description: Assays were performed with 1 mM monacolin J, 4 mM acyl-CoA and 10 uM LovD for 10 hours.

[2] = tested on: Neurospora crassa; test: Agar diffusion growth inhibition of Neurospora crassa by statins
Description: N. crassa was grown on SDA slants for 10 days and spores were harvested with 1% Tween-80. 100 ml of molten SDA was seeded with 0.3-0.5×10^8 spores and poured into a 230×230 mm plate. Colonies from mutation library were cultured in 96 well plates containing 250 μl LB medium (with 35 mg/L kanamycin). The cells were grown at 37° C. to saturation and transferred to duplicated plates. Protein expression was induced with 0.1 mM IPTG at OD600 of 0.5 and the expression was performed at 25° C. for 16 h. 5 mM MJA and 10 mM DMB-SMMP were added to initiate the reaction. After a certain reaction time (45 mins to 4 hours depending on the activity of the parent), cells were removed with centrifugation (2,000 g, 4° C., 5 min). The amount of supernatant spotted on the SDA plate was typically 1-3 μl. The plates were incubated at 30° C. for 16˜18 hours.
N. crassa was grown on SDA slants for 10 days and spores were harvested with 1% Tween-80. 100 ml of molten SDA was seeded with 0.3-0.5×10^8 spores and poured into a 230×230 mm plate. Colonies from mutation library were cultured in 96 well plates containing 250 μl LB medium (with 35 mg/L kanamycin). The cells were grown at 37° C. to saturation and transferred to duplicated plates. Protein expression was induced with 0.1 mM IPTG at OD600 of 0.5 and the expression was performed at 25° C. for 16 h. 5 mM MJA and 10 mM DMB-SMMP were added to initiate the reaction. […]

[3] = Native gel / SDS-PAGE of LovD proteins (oligomer, insoluble protein); format: physicochemical; settings: DTT fixed at 2 mM
Description: FIG. 2. (a) SDS-PAGE gel LovD protein (WT) from E. coli BL21(DE3)/pAW31; (b) native gel of LovD protein (WT) and A1-A8 respectively, DTT was fixed at 2 mM for all samples.
LovD protein was purified to homogeneity by one step Ni-NTA column (FIG. 2a). […] The disulfide bonds between the proteins are spurious for protein crystallization because the monomer and oligomer are different species (see, e.g. Nemoto et al., 2006; J Appl Physiol 100(5):1688-91). One of our purposes was to remove the intermolecular disulfide bonds. By replacing the cysteine residues with alanine, we hope the resultant LovD mutant can keep the acyl-transferase activity while breaking the intermolecular disulfide bonds. […] We reasoned that the solubility of LovD may be changed when the intermolecular disulfide bonds between wild type LovD was eliminated (see, e.g. Lindberg et al., M. 2004; Proc Natl Acad Sci USA 101(45):15893-8).
We ran the native gel of all the mutant proteins together with the wild type LovD protein (FIG. 2b).

[4] = tested on: MJ acid and DMB-S-MMP; test: Kinetic assay of LovD wild type and mutants towards MJ acid and DMB-S-MMP; format: biochemical
Description: Dimethyl sulfoxide (DMSO) was added to a final concentration of 10% to facilitate the solubilization of DMB-S-MMP. To compare the turnover rate of all mutants and the wild type protein, the MJ acid concentration was set at 1 mM and the DMB-S-MMP was set at 2 mM, the protein concentration was fixed at 10 uM, after the reaction was performed at room temperature for 2 hours, the reaction was quenched by adding EA/2% TFA. The organic phase was dried and redissolved in ACN for HPLC analysis.
The concentration of DMB-S-MMP was fixed at 2 mM and MJ acid concentration was varied from 0.25 mM to 2.0 mM. […] For the rest LovD mutant proteins, we only checked the conversion of one time point.
To obtain KM values for MJA and kcat, the DMB-SMMP concentration was fixed at 2 mM, while the concentration of MJA was varied from 0.25 to 5 mM. To obtain KM values for DMB-SMMP and kcat, the MJA concentration was fixed at 2 mM, while the concentration of DMB-SMMP was varied from 0.5 to 5 mM. Dimethyl sulfoxide (DMSO) was added to a final concentration of 10% to facilitate the solubilization of DMB-SMMP. At different time points of the kinetic assay, an aliquot of the reaction mixture was removed, quenched with 1% TFA and extracted with EA containing 1% acetic acid. The organic phase was separated, dried, resolubilized by acetonitrile (ACN) and analyzed by a Beckman Gold HPLC using a reverse phase C18 column (Alltech Apollo 5μ, 150 mm×4.6 mm) and a linear gradient: 60% ACN in water (0.1% trifluoroacetic acid (TFA)) to 95% ACN in water (0.1% TFA) for 10 min, 1 mL/min. Conversion of MJA to SVA was measured by integration of the peaks at 238 nm.

[5] = Soluble LovD protein expression level (Ni-NTA purification, Bradford assay)
Description: Each mutant was transformed into E. coli YT2 strain and selected by Kanamycin (Kan). The transformant was grown in 500 ml LB-Kan media at 37° C. to OD600 0.4˜0.6, then 0.1 mM IPTG was added to induce protein expression at 20° C. for 16 hours. Cells were collected by centrifugation, resuspended in 30 ml Buffer A (50 mM Tris-HCl, pH 8.0, 2 mM 2 mM EDTA), and lysed by sonication. Cell debris and insoluble proteins were removed by centrifugation (16,000 g, 4° C., 1 h). To the cleared lysate, 2 ml of Ni-NTA resin (Qiagen) was added. Each mutant was purified using a step gradient of buffer A with increasing concentration of imidazole. Pure (>95%) LovD proteins were eluted in buffer A containing 250 mM imidazole, and then buffer exchanged into buffer A without imidazole. Glycerol was added to a final concentration of 10%, the proteins were aliquoted, and flash frozen.
All nine mutants and the wild type LovD proteins were purified at the same time and under the same conditions. The proteins were purified from 50 ml LB culture. LovD was eluted in the last fraction which contains 250 mM imidazole. The concentration of the last fraction was determined by Bradford Assay using BSA as the standard.
Each expression plasmid encoding LovD mutant was transformed into E. coli BL21(DE3). The transformant was cultured in 50 mL LB medium containing 35 mg/L Kan at 37° C. to optical density (OD600) value of 0.4˜0.6. Protein expression was induced with 0.1 mM IPTG and the subsequent expression was performed at 25° C. for 16 h. Cells were collected by centrifugation (2,000 g, 4° C., 15 min), resuspended in 7 mL Buffer A (50 mM Tris-HCl, pH 8.0, 2 mM DTT, 2 mM EDTA), and lysed by sonication. Cell debris and insoluble proteins were removed by centrifugation (20,000 g, 4° C., 1 h). To the cleared cell lysate, 0.5 mL of Ni-NTA resin (Qiagen, Valencia, Calif.) was added to each sample. […] The protein concentrations were qualitatively assessed by SDS-PAGE and quantitatively determined by the Bradford protein assay using bovine serum albumin (BSA) as the standard.

[6] = tested on: E. coli YT2; test: Whole-cell biocatalysis, MJ acid and DMB-S-MMP to simvastatin acid (Example 1); settings: based on 8 hours conversion, wild type normalized to 100%
Description: Whole cell biocatalytic activities based on the conversion from MJ acid and DMB-S-MMP (gray column) and soluble protein expression level comparison between the wild type LovD and the mutants (black column). For the whole cell activity, the LB culture was concentrated 10 times to mimic high density fermentation, 15 mM MJ acid and 18 mM DMB-S-MMP were used to compare the conversion. The conversion based on 8 hours was used to compare the whole cell activity between the wild type LovD and the mutants. The wild type LovD conversion was normalized to 100%, the data points are averaged values of two runs.
The LovD wild type and all mutants were cultured side-by-side for comparison. A single colony of the freshly transformed strains was used to inoculate a 5 ml LB culture supplemented with 35 mg/L kan and grown overnight at 37° C. The next morning, 100 μl of the overnight culture (0.2%) was inoculated into 50 ml LB medium with Kan. When OD600 reached 0.4˜0.6, 0.1 mM IPTG was added to the culture and expression of LovD was performed at 20° C. for 16 hrs. To mimic the high density fermentation conditions, the cells were concentrated 10-fold before addition of substrates. A 14 ml aliquot of the culture was collected by centrifugation (4° C., 4000 g, 10 min). The cell pellet was gently resuspended in 1330 ml of the supernatant, followed by addition of 70 ml of a MJ acid stock solution (300 mM in water) to make final concentration 15 mM. The concentrated culture was then resuspended and separated into seven 200 μl samples, 1 μl of pure DMB-S-MMP was added to each sample (final concentration ˜20 mM). The cultures were then shaken at 300 rpm at room temperature. At each time point, a total extraction was performed by adding 10 μl of 20% SDS to completely lyse the cells, followed by liquid—liquid extraction with 500 μl EA/2% TFA. The organic phase was removed, evaporated, and redissolved in 500 μl ACN for HPLC analysis.
We then tested the in vivo activity of the nine mutants in comparison to the wild type LovD. Both the mutants and the wild type LovD strains were grown in LB media, expressed and concentrated 10 times to mimic the high density fermentation after 16 hours expression at 20° C. Both MJ acid and DMB-S-MMP were added to final 15 mM and 18 mM respectively to start the reaction. At 8 hours, 100 μl sample culture was taken out to check the total conversion from MJ acid to simvastatin acid.

[7] = tested on: E. coli YT2; test: Whole-cell biocatalysis activity of LovD G0 and directed-evolution mutants (SVA synthesis); settings: 25° C.
Description: Wild type LovD and all mutants were cultured in parallel for comparison. A single colony of the freshly transformed YT2 competent cells was used to inoculate a 5 mL LB culture supplemented with 35 mg/L kanamycin. Following overnight growth at 37° C., 100 μl of the culture was inoculated into 50 mL LB medium supplemented with 35 mg/L kanamycin. When OD600 reached 0.4˜0.6, 0.1 mM IPTG was added to the cultures and expression of all LovD variants was performed at 25° C. for 16 hr. To mimic the high density fermentation conditions, the cells were then concentrated 10-fold before addition of substrates. A 10 ml aliquot of each culture was collected by centrifugation (4° C., 2,000 g, 10 min). The cell pellet was gently resuspended in 1 ml of the medium supernatant, followed by addition of 70 μl of MJA (300 mM stock) to a final concentration of 15 mM. The concentrated culture was then divided into seven 200 μl aliquots and 1 μl of pure DMB-SMMP was added to each sample to a final concentration of 20 mM. The small cultures were then shaken at 300 rpm at 25° C. At each time point, a complete extraction of one culture aliquot was performed by adding 10 μl of 20% SDS for cells lysis, followed by extraction with 500 μl ethyl acetate containing 1% trifluoroacetic acid TFA. The organic phase was removed, evaporated, and redissolved in 500 μl acetonitrile for HPLC analysis. The whole-cell activity was determined by fitting the linear regions of the conversion time course plot.
Parent LovD G0 and all mutants were cultured in parallel for comparison. A single colony of the freshly transformed YT2 competent cells was used to inoculate a 5 mL LB culture supplemented with 35 mg/L kanamycin. Following overnight growth at 37° C., 100 μl of the culture was inoculated into 50 mL LB medium supplemented with 35 mg/L kanamycin. When OD600 reached 0.4˜0.6, 0.1 mM IPTG was added to the cultures and expression of all LovD variants was performed at 25° C. for 16 hr. To mimic the high density fermentation conditions, the cells were then concentrated 10-fold before addition of substrates. A 10 ml aliquot of each culture was collected by centrifugation (4° C., 2,000 g, 10 min). The cell pellet was gently resuspended in 1 ml of the medium supernatant, followed by addition of 70 μl of MJA (300 mM stock) to a final concentration of 15 mM. The concentrated culture was then divided into seven 200 μl aliquots and 1 μl of pure DMB-SMMP was added to each sample to a final concentration of 20 mM. The small cultures were then shaken at 300 rpm at 25° C. At each time point, a complete extraction of one culture aliquot was performed by adding 10 μl of 20% SDS for cells lysis, followed by extraction with 500 μl ethyl acetate containing 1% trifluoroacetic acid TFA. The organic phase was removed, evaporated, and redissolved in 500 μl acetonitrile for HPLC analysis. The whole-cell activity was determined by fitting the linear regions of the conversion time course plot.

[8] = DMB-S-MMP fixed at 2 mM, MJ acid 0.25 mM to 2.0 mM

Molecule: CCCC(=O)SCC(=O)OC
- Conversion (percent monacolin J converted to the corresponding lovastatin analog) [1]: 92%, 6.8

Molecule: COC(=O)CSC(=O)c1ccccc1
- Conversion (percent monacolin J converted to the corresponding lovastatin analog) [1]: 70%, 7.6

Molecule: C[C@H]1C=C2C=C[C@H](C)[C@H](CC[C@@H](O)C[C@@H](O)CC(=O)O)[C@H]2[C@@H](O)C1 [MJA, monacolin J acid]
- quantity needed to inhibit the growth of N. crassa (in words) [2]: hundred milligram quantities

Molecule: CCC(C)(C)C(=O)O[C@H]1C[C@@H](C)C=C2C=C[C@H](C)[C@H](CC[C@@H](O)C[C@@H](O)CC(=O)O)[C@H]21 [SVA, simvastatin acid]
- quantity needed to inhibit the growth of N. crassa (in words) [2]: sub-microgram quantities

Molecule: CCC(C)(C)C(=O)SCC(=O)OC [drawing 22]
- Conversion (percent monacolin J converted to the corresponding lovastatin analog) [1]: 17%, 8.5

B1: A1: LovD C40A mutant (protein, UniProt Q9Y7D1 1-413, looked up, variant C40A)
Monacolin J acid …: MGSIIDAAAAADPVVLMETAFRKAVKSRQIPGAVIMARDASGNLNYTRCFGARTVRRDECNQLPPLQVDTPCRLASATKLLTTIMALQCMERGLVDLDETVDRLLPDLSAMPVLEGFDDAGNARLRERRGKITLRHLLTHTSGLSYVFLHPLLREYMAQGHLQSAEKFGIQSRLAPPAVNDPGAEWIYGANLDWAGKLVERATGLDLEQYLQENICAPLGITDMTFKLQQRPDMLARRADQTHRNSADGRLRYDDSVYFRADGEECFGGQGVFSGPGSYMKVLHSLLKRDGLLLQPQTVDLMFQPALEPRLEEQMNQHMDASPHINYGGPMPMVLRRSFGLGGIIALEDLDGENWRRKGSLTFGGGPNIVWQIDPKAGLCTLAFFQLEPWNDPVCRDLTRTFEHAIYAQYQQG
- native gel: oligomer / monomer / stability (in words) [3]: slightly more monomers; also recorded: slightly less oligomer
- Km [4, 8]: 680 µM
- kcat [4, 8]: 0.0103 s⁻¹
- solubility more than the wild type ([5]; purified from 50 ml LB culture, Bradford): 28%
- whole cell activity higher than the wild type [6]: ~25% and 31%

B2: GX27: LovD mutant with eight mutations: C40A, C60N, A86V, D12G, G275S, A190T, H161Y (printed 11161Y) and K26E (protein, UniProt Q9Y7D1 1-413, looked up, variant C40A C60N A86V D12G G275S A190T H161Y K26E)
Monacolin J acid …: MGSIIDAAAAAGPVVLMETAFRKAVESRQIPGAVIMARDASGNLNYTRCFGARTVRRDENNQLPPLQVDTPCRLASATKLLTTIMVLQCMERGLVDLDETVDRLLPDLSAMPVLEGFDDAGNARLRERRGKITLRHLLTHTSGLSYVFLHPLLREYMAQGYLQSAEKFGIQSRLAPPAVNDPGAEWIYGTNLDWAGKLVERATGLDLEQYLQENICAPLGITDMTFKLQQRPDMLARRADQTHRNSADGRLRYDDSVYFRADGEECFGGQGVFSSPGSYMKVLHSLLKRDGLLLQPQTVDLMFQPALEPRLEEQMNQHMDASPHINYGGPMPMVLRRSFGLGGIIALEDLDGENWRRKGSLTFGGGPNIVWQIDPKAGLCTLAFFQLEPWNDPVCRDLTRTFEHAIYAQYQQG
- improvement of the kcat/Km value compared to wild type enzyme [4]: 3.45 fold
- improvement of the soluble expression level compared to wild type enzyme [5]: 4 fold
- improvement in whole-cell activity compared to wild type enzyme [7]: 11 fold

B3: GX12: LovD mutant with six mutations: C40A, C60N, A86V, D12G, G275S and A190T (protein, UniProt Q9Y7D1 1-413, looked up, variant C40A C60N A86V D12G G275S A190T)
Monacolin J acid …: MGSIIDAAAAAGPVVLMETAFRKAVKSRQIPGAVIMARDASGNLNYTRCFGARTVRRDENNQLPPLQVDTPCRLASATKLLTTIMVLQCMERGLVDLDETVDRLLPDLSAMPVLEGFDDAGNARLRERRGKITLRHLLTHTSGLSYVFLHPLLREYMAQGHLQSAEKFGIQSRLAPPAVNDPGAEWIYGTNLDWAGKLVERATGLDLEQYLQENICAPLGITDMTFKLQQRPDMLARRADQTHRNSADGRLRYDDSVYFRADGEECFGGQGVFSSPGSYMKVLHSLLKRDGLLLQPQTVDLMFQPALEPRLEEQMNQHMDASPHINYGGPMPMVLRRSFGLGGIIALEDLDGENWRRKGSLTFGGGPNIVWQIDPKAGLCTLAFFQLEPWNDPVCRDLTRTFEHAIYAQYQQG
- improvement of the kcat/Km value compared to wild type enzyme [4]: 2.83 fold
- improvement of the soluble expression level compared to wild type enzyme [5]: 2.3 fold
- improvement in whole-cell activity compared to wild type enzyme [7]: 7.5 fold
